In patent US20180273634A1:
“And” between values parts separate entries of the source, which are not always exact repeats. Identical values can stand only once.

What was measured:
[1] = biological target: prostate specific antigen (PSA) (human) (UniProt P07288); assay: SPR, Biacore 3000, PSA amine-coupled on CM4 chip, antibody in flow; dissociation followed 8 h
[2] = biological target: prostate specific antigen (PSA) (human) (UniProt P07288); assay: SPR, Biacore 3000, PSA amine-coupled on CM4 chip, antibody in flow at 12.5-100 nM
[3] = biological target: prostate specific antigen (PSA) (human) (UniProt P07288); assay: SPR, Biacore 3000, PSA amine-coupled on CM4 chip, antibody in flow

Sequence of prostate specific antigen (PSA) (human) (P07288 25-261 limits assumed): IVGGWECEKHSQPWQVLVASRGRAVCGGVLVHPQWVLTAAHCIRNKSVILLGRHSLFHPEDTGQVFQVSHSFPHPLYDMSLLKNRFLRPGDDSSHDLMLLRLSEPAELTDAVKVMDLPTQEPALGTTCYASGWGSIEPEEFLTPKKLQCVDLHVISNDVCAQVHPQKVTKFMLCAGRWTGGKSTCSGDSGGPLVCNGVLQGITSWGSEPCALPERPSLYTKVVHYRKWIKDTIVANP

koff [1] | kon [2] | Kd [3] | Substance
6.3e-06 s⁻¹ | 280000 M⁻¹ s⁻¹ | 0.02 nM | m5A10-DOTA (antibody)
6.6e-06 s⁻¹ | 290000 M⁻¹ s⁻¹ | 0.02 nM | m5A10-DFO (antibody)
6.3e-06 s⁻¹ | 270000 M⁻¹ s⁻¹ | 0.02 nM | m5A10-DTPA (antibody)
6.3e-06 s⁻¹ and 5.4e-06 s⁻¹ | 290000 M⁻¹ s⁻¹ and 250000 M⁻¹ s⁻¹ | 0.02 nM | murine 5A10 monoclonal antibody (m5A10)
